Laboratory results published in patent US20200277385A1 (LABORATOIRE FRANCAIS DU FRACTIONNEMENT ET DES …, published 2020).

T1: human CD303 antigen expressed on cells (human, UniProt Q8WTT0 1-213)
T1 construct: On Fcγ chain-CD303 Jurkat cells, CAL-1 cells, and CAL-1 cells transfected with a CD303 expression vector; also called BDCA-2; BDCA2
T1 sequence: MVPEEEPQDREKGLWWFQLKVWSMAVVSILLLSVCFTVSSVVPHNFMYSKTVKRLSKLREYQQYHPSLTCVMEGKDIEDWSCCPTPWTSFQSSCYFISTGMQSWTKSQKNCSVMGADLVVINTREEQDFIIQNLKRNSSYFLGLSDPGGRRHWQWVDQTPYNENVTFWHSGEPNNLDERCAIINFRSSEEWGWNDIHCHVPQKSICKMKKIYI

B1: chimeric antibody 122A2 (antibody, human IgG1, kappa)
heavy: not shown
light: DIQMTQTTSSLSASLGDRVTISCRASQDISNYLNWYQQKPDGTVKLLIYYTSRLHSGVPSRFSGSGSGTDYSLTISNLDQEDIATYFCQQGNTLPWTFGGGTKLEIKRTVAAPSVFIFPPSDEQLKSGTASVVCLLNNFYPREAKVQWKVDNALQSGNSQESVTEQDSKDSTYSLSSTLTLSKADYEKHKVYACEVTHQGLSSPVTKSFNRGEC
notes: also called ch.122A2; ch122A2
B2: chimeric antibody 102E9 (antibody, human IgG1, kappa)
heavy: not shown
light: QIVLTQSPAIMSASPGEKVTITCSASSSVIYIHWFQQKPGTSPKLWIYSTSYLASGVPARFSGSGSGTSYSLTISRMEAEDAATYYCQQRRSYPFTFGGGTKLEIKRTVAAPSVFIFPPSDEQLKSGTASVVCLLNNFYPREAKVQWKVDNALQSGNSQESVTEQDSKDSTYSLSSTLTLSKADYEKHKVYACEVTHQGLSSPVTKSFNRGEC
notes: also called ch.102E9

Assays:
[1] = target: T1, human CD303 antigen expressed on cells; assay: flow cytometry on CAL-1 cells transfected with CD303 (about 40,000-50,000 CD303/cell)
Protocol: (§1) The CD303-expressing cells and the antibodies are prepared in diluent (PBS+1% FCS). 1·10⁵ cells are incubated at 4° C. for 30 minutes with 100 μL of antibody (anti-CD303 or negative control) at various concentrations (0-40 μg/mL, final concentration).
(§2) After washing with the diluent, the antibodies are visualized by addition of a phycoerythrin (PE)-coupled goat anti-mouse IgG F(ab′)₂ fragment (100 μL diluted to 1:100 in the diluent) for 45 minutes at 4° C. The cells are then washed and analyzed by flow cytometry (FC500, Beckman Coulter).

[2] = target: T1, human CD303 antigen expressed on cells; assay: cell-based or functional assay
FcγRIIIa (CD16a) [3] = target: T2, FcγRIIIa (CD16a) (UniProt P08637 17-254, limits assumed); assay: competition with 3G8-PE for CD16 on NK cells, flow cytometry
T2 construct: whole, on cells; also called Fcγ receptor III

[4] = target: T1, human CD303 antigen expressed on cells; assay: flow cytometry on CAL-1 cells (experiment with BIIB059)
Protocol: as §1, §2

FcγRIIIa (CD16a) [5] = target: T2, FcγRIIIa (CD16a); assay: competition with 3G8-PE for CD16 on NK cells, flow cytometry (second experiment)
[6] = target: T1, human CD303 antigen expressed on cells; assay: flow cytometry on CAL-1 cells
Protocol: as §1, §2

[7] = target: T1, human CD303 antigen expressed on cells; assay: cell-based or functional assay; remark: listed apart in the source
[8] = target: T1, human CD303 antigen expressed on cells; assay: cell-based or functional assay; remark: listed apart in the source
[9] = target: T1, human CD303 antigen expressed on cells; assay: flow cytometry on Fcγ chain-CD303 Jurkat cells
Protocol: as §1, §2

T2 sequence (P08637 17-254 limits assumed): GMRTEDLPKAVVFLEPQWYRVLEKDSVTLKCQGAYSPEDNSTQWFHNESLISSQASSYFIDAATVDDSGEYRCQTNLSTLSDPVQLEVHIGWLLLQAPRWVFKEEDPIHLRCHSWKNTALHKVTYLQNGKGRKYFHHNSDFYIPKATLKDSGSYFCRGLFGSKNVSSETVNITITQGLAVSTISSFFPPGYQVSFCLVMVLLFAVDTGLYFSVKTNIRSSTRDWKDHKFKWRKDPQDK

Row | Binder | EC50 [1] | IC50 for IFN-α secretion from pDCs contained in PBMCs [2] | IC50 (FcγRIIIa (CD16a) [3]) | EC50 [4] | IC50 (FcγRIIIa (CD16a) [5]) | Bmax (MFI) [6] | EC50 [6] | ADCC EC50, Fcγ chain-CD303 Jurkat target cells with NK cells [7] | ADCC Emax (% lysis), Fcγ chain-CD303 Jurkat target cells with NK cells [7] | ADCC EC50, CAL-1 target cells [8] | Bmax (MFI) [9] | EC50 [9]
1 | B1 | 0.142 µg/mL | 0.959 ng/mL | 40.4 µg/mL | 0.06 µg/mL | 13 µg/mL | 25.2 MFI | 0.207 µg/mL | 0.000159 µg/mL | 42.4 % lysis | 0.00093 µg/mL | 26.2 MFI | 0.128 µg/mL
2 | B2 | 0.363 µg/mL |  | 37 µg/mL | 0.44 µg/mL | 13 µg/mL | 30.5 MFI | 1.81 µg/mL | 0.00342 µg/mL | 38.9 % lysis | 0.0038 µg/mL | 24.9 MFI | 3.87 µg/mL
